The text below walks through data of US20120316071A1 (published 2012).

B1: Fab VH1-46_IGHD6-6*01_IGHJ1*01 S103stop & L6_IGKJ1*01 (Fab, V domains shown)
VH: QVQLVQSGAEVKKPGASVKVSCKASGYTFTSYYMHWVRQAPGQGLEWMGIINPSGGSTSYAQKFQGRVTMTRDTSTSTVYMELSSLRSEDTAVYYCAREEYS
VL: not shown
notes: The heavy chain is therefore truncated in CDR3 and carries no CH1 or tags
B2: Fab VH1-46_IGHD6-6*01_IGHJ1*01 S102A & L6_IGKJ1*01 (Fab, V domains shown)
VH: QVQLVQSGAEVKKPGASVKVSCKASGYTFTSYYMHWVRQAPGQGLEWMGIINPSGGSTSYAQKFQGRVTMTRDTSTSTVYMELSSLRSEDTAVYYCAREEYASSSAEYFQHWGQGTLVTVSS
VL: not shown
notes: Fab; heavy chain CDR3 NNK mutant of the parent; Constant parts as for the parent Fab
B3: Fab VH1-46_IGHD6-6*01_IGHJ1*01 S102I & L6_IGKJ1*01 (Fab, V domains shown)
VH: B2 VH with A102I
VL: not shown
notes: as for B2
B4: Fab VH1-46_IGHD6-6*01_IGHJ1*01 S103C & L6_IGKJ1*01 (Fab, V domains shown)
VH: B2 VH with A102S, S103C
VL: not shown
notes: as for B2
B5: Fab VH1-46_IGHD6-6*01_IGHJ1*01 S103P & L6_IGKJ1*01 (Fab, V domains shown)
VH: B2 VH with A102S, S103P
VL: not shown
notes: as for B2
B6: Fab VH1-46_IGHD6-6*01_IGHJ1*01 S103H & L6_IGKJ1*01 (Fab, V domains shown)
VH: B2 VH with A102S, S103H
VL: not shown
notes: as for B2
B7: Fab VH1-46_IGHD6-6*01_IGHJ1*01 S102Q & L6_IGKJ1*01 (Fab, V domains shown)
VH: B2 VH with A102Q
VL: not shown
notes: Fab; heavy chain CDR3 NNK mutant of the parent; Constant parts as for the parent Fab (CH1 with His6/Flag tags, kappa CL)
B8: Fab VH1-46_IGHD6-6*01_IGHJ1*01 S102G & L6_IGKJ1*01 (Fab, V domains shown)
VH: B2 VH with A102G
VL: not shown
notes: as for B2
B9: Fab VH1-46_IGHD6-6*01_IGHJ1*01 S102V & L6_IGKJ1*01 (Fab, V domains shown)
VH: B2 VH with A102V
VL: not shown
notes: as for B2
B10: Fab VH5-51_IGHD5-18*01>3_IGHJ4*01 G100K/G104T (H:KT) & V3-4_IGLJ1*01 (Fab, V domains shown)
VH: EVQLVQSGAEVKKPGESLKISCKGSGYSFTSYWIGWVRQMPGKGLEWMGIIYPGDSDTRYSPSFQGQVTISADKSISTAYLQWSSLKASDTAMYYCARRKYSYTYDYFDYWGQGTLVTVSS
VL: QTVVTQEPSFSVSPGGTVTLTCGLSSGSVSTSYYPSWYQQTPGQAPRTLIYSTNTRSSGVPDRFSGSILGNKAALTITGAQADDESDYYCVLYMGSGISYVFGTGTKVTVL
notes: Tested as purified Fab made in E. coli; also called H:KT & L:wt; KT double mutant
B11: Fab VH5-51_IGHD5-18*01>3_IGHJ4*01 G100K/G104T (H:KT) & V3-4_IGLJ1*01 S99A (Fab, V domains shown)
VH: B10 VH
VL: B10 VL with S99A
notes: Fab; CH1 (His6/Flag tags, plasmid A) and lambda CL (plasmid E) as for the parent
B12: Fab VH5-51_IGHD5-18*01>3_IGHJ4*01 G100K/G104T (H:KT) & V3-4_IGLJ1*01 S96A (Fab, V domains shown)
VH: B10 VH
VL: B10 VL with S96A
notes: as for B11
B13: Fab VH5-51_IGHD5-18*01>3_IGHJ4*01 G100K/G104T (H:KT) & V3-4_IGLJ1*01 V91A (Fab, V domains shown)
VH: B10 VH
VL: B10 VL with V91A
notes: as for B11
B14: Fab VH5-51_IGHD5-18*01>3_IGHJ4*01 G100K/G104T (H:KT) & V3-4_IGLJ1*01 L92A (Fab, V domains shown)
VH: B10 VH
VL: B10 VL with L92A
notes: as for B11
B15: Fab VH5-51_IGHD5-18*01>3_IGHJ4*01 G100K/G104T (H:KT) & V3-4_IGLJ1*01 Y93A (Fab, V domains shown)
VH: B10 VH
VL: B10 VL with Y93A
notes: as for B11
B16: Fab VH5-51_IGHD5-18*01>3_IGHJ4*01 G100K/G104T (H:KT) & V3-4_IGLJ1*01 I98A (Fab, V domains shown)
VH: B10 VH
VL: B10 VL with I98A
notes: as for B11
B17: Fab VH5-51_IGHD5-18*01>3_IGHJ4*01 G100K/G104T (H:KT) & V3-4_IGLJ1*01 G97A (Fab, V domains shown)
VH: B10 VH
VL: B10 VL with G97A
notes: as for B11
B18: Fab VH5-51_IGHD5-18*01>3_IGHJ4*01 G100K/G104T (H:KT) & V3-4_IGLJ1*01 M94A (Fab, V domains shown)
VH: B10 VH
VL: B10 VL with M94A
notes: as for B11
B19: Fab VH5-51_IGHD5-18*01>3_IGHJ4*01 G100K/G104T (H:KT) & V3-4_IGLJ1*01 G95A (Fab, V domains shown)
VH: B10 VH
VL: B10 VL with G95A
notes: as for B11
B20: Fab VH1-46_IGHD6-6*01_IGHJ1*01 S102A/S103P/S104F/H111F (APFF) & L6_IGKJ1*01 N93Q (Fab, V domains shown)
VH: B2 VH with S103P, S104F, H111F
VL: EIVLTQSPATLSLSPGERATLSCRASQSVSSYLAWYQQKPGQAPRLLIYDASNRATGIPARFSGSGSGTDFTLTISSLEPEDFAVYYCQQRSQWPPWTFGQGTKVEIKR
notes: Fab with CH1 plus His6/Flag tags and kappa CL from the expression plasmids; also called APFF & N93Q
B21: Fab VH1-46_IGHD6-6*01_IGHJ1*01 S102A/S103P/S104F/H111F (APFF) & L6_IGKJ1*01 N93Y (Fab, V domains shown)
VH: B2 VH with S103P, S104F, H111F
VL: B20 VL with Q93Y
notes: Fab with CH1 plus His6/Flag tags and kappa CL from the expression plasmids; also called APFF & N93Y
B22: Fab VH1-46_IGHD6-6*01_IGHJ1*01 S102A/S103P/S104F/H111F (APFF) & L6_IGKJ1*01 N93H (Fab, V domains shown)
VH: B2 VH with S103P, S104F, H111F
VL: B20 VL with Q93H
notes: Fab with CH1 plus His6/Flag tags and kappa CL from the expression plasmids; also called APFF & N93H
B23: Fab VH1-46_IGHD6-6*01_IGHJ1*01 S102A/S103P/S104F (APF) & L6_IGKJ1*01 R91Q (Fab, V domains shown)
VH: B2 VH with S103P, S104F
VL: B20 VL with R91Q, Q93N
notes: Fab with CH1 plus His6/Flag tags and kappa CL from the expression plasmids; also called APF & R91Q
B24: Fab VH1-46_IGHD6-6*01_IGHJ1*01 S102A/S103P/S104F (APF) & L6_IGKJ1*01 S92N (Fab, V domains shown)
VH: B2 VH with S103P, S104F
VL: B20 VL with S92N, Q93N
notes: Fab with CH1 plus His6/Flag tags and kappa CL from the expression plasmids; also called APF & S92N
B25: Fab VH1-46_IGHD6-6*01_IGHJ1*01 S102A/S103P/S104F/H111F (APFF) & L6_IGKJ1*01 N93S (Fab, V domains shown)
VH: B2 VH with S103P, S104F, H111F
VL: B20 VL with Q93S
notes: Fab with CH1 plus His6/Flag tags and kappa CL from the expression plasmids; also called APFF & N93S
B26: Fab VH1-46_IGHD6-6*01_IGHJ1*01 S102A/S103P/S104F (APF) & L6_IGKJ1*01 R91P (Fab, V domains shown)
VH: B2 VH with S103P, S104F
VL: B20 VL with R91P, Q93N
notes: Fab with CH1 plus His6/Flag tags and kappa CL from the expression plasmids; also called APF & R91P
B27: Fab VH1-46_IGHD6-6*01_IGHJ1*01 S102A/S103P/S104F/H111F & L6_IGKJ1*01 (Fab, V domains shown)
VH: B2 VH with S103P, S104F, H111F
VL: not shown
notes: Fab expressed in E. coli: VH cloned into Plasmid A (CH1, His6 and Flag tags), kappa VL into Plasmid C (kappa CL); also called APFF; H:APFF & L:wt

Changes are numbered by the printed parent chain. Names may count otherwise.

The first assay deals with T1, Recombinant Human DLL4 (R&D Systems Cat#1506-D4/CF) (human, UniProt Q9NR61 27-524).
T1 construct: Bought recombinant protein; also called delta-like protein 4; rHuman DLL4
Nature of the assay: ECL 96-well plate assay; 0.02 uM Fab, plate coated with 30 ug/mL DLL4.
Regarding B1, the Signal/Noise is 0.8.
The same measure, in the same setting: for B2 the value was 51.7; for B3, 35.3; for B4, 27.1.
Still for that read-out and setting: for B5 the value was 59.7; for B6, 21.7.
Same read-out and setting: for B7 the value was 40.6; for B8, 5.1.
For B9, the Signal/Noise worked out at 35.9.

The next assay concerns the target T2, Recombinant Human DLL4 (R&D Systems Cat#1506-D4/CF) (human, UniProt Q9NR61 27-524).
T2 construct: also called delta-like protein 4; Delta-like 4
The assay is described as follows: ECL (MSD) multispot binding assay, immobilised recombinant human DLL4, Fab at 0.04 uM.
For B10, the “ECL Signal/Noise” value was 49.2.
On the same count and under the same terms, under B11 stands 41; under B12, 57.9; under B13, 48.5.
Still for that read-out and setting: for B14 the value was 30.3; for B15, 21.3.
Still for that read-out and setting: under B16 stands 32.6; under B17, 24.7.
Consider B18, for which the “ECL Signal/Noise” value was 53.1.
Still for that read-out and setting: under B19 stands 34.4.

Another assay concerns the target T3, Recombinant Human DLL4 (R&D Systems Cat#1506-D4/CF) (human, UniProt Q9NR61 27-524).
T3 construct: Bought protein (R&D Systems Cat#1506-D4/CF), immobilised on the MSD plate; also called delta-like protein 4; rHuman DLL4
The assay is described as follows: ECL (MSD) multispot binding assay, DLL4 immobilised, Fab in solution.
On to B20, for which the “ECL signal” value is 704.
Still for that read-out and setting: under B21 stands 1380.
On the same count and under the same terms, for B22 the value was 14700.
Take B23: the “ECL signal” value was 817 and the Signal/Blank was 3.1.
Regarding B24, the “ECL signal” value was determined as 2090.
Same read-out and setting: under B25 stands 6440.
Take B26: the “ECL signal” value came to 1280 and the Signal/Blank is 4.7.

A further assay deals with T4, rHuman IGF-1 sR, CF (R&D Systems Cat#391-GR) (human, UniProt P08069 31-932).
T4 construct: Bought soluble receptor; also called insulin-like growth factor-1 soluble receptor
Nature of the assay: ECL multispot (MSD) assay, antigen spotted on plate, 10 nM Fab.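 Also: bound Fab detected with a TAG-labelled detection antibody (1 h, 20 °C), electrochemiluminescence read and compared with each well's blank, signal/blank of 4 or above scored as hit.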
B27 displayed an ECL signal of 397.

A further assay has as its target T5, rHuman EGF R/Fc Chimera, CF (R&D Systems Cat#344-ER) (human, UniProt P00533 25-645).
T5 construct: Bought recombinant Fc chimera; also called epidermal growth factor receptor; Fc part of the bought chimera not given
The description is as above.
For B27, the ECL signal was 383.

For a further assay, the target named is T6, rHuman HGF R/c-MET/Fc Chimera, CF (R&D Systems Cat#358-MT/CF) (human, UniProt P08581 25-932).
T6 construct: Bought recombinant Fc chimera; also called HGF R/Fc; hepatocyte growth factor receptor; Fc part of the bought chimera not given
T6 sequence (P08581 25-932, change not shown): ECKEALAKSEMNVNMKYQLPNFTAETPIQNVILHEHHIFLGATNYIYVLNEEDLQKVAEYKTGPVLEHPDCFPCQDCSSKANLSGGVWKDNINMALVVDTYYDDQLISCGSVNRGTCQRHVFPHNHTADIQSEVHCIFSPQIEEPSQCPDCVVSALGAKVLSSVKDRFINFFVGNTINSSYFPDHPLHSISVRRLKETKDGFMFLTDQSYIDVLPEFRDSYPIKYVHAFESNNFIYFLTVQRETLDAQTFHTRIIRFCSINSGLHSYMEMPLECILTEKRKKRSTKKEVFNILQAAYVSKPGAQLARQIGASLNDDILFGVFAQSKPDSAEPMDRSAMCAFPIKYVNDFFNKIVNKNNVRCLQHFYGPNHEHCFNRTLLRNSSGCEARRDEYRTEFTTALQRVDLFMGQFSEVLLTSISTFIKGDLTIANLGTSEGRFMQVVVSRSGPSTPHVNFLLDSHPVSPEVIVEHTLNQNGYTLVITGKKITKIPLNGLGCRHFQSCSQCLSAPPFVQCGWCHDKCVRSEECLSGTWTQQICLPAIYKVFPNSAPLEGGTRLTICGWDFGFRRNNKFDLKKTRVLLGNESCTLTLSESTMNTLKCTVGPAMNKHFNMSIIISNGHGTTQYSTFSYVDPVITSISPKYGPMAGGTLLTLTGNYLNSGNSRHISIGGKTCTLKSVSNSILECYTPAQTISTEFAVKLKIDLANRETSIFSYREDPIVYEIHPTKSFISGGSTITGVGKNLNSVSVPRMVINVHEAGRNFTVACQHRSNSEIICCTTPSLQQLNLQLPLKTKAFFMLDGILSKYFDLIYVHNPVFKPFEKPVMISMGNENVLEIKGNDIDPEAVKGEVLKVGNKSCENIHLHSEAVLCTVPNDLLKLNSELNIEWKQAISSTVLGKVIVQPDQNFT
Described as above.
Molecule B27 displayed an ECL signal of 347.

The target in another assay is T7, rHuman ErbB2/Fc Chimera, CF (R&D Systems Cat#1129-ER) (human, UniProt P04626 23-652).
T7 construct: Bought recombinant Fc chimera; also called human epidermal growth factor 2 receptor; Fc part of the bought chimera not given
The description is as above.
Take B27: the ECL signal came out at 354.

For the next assay, the target named is T8, Recombinant Human DLL4 (R&D Systems Cat#1506-D4/CF) (human, UniProt Q9NR61 27-524).
T8 construct: Bought recombinant protein; also called delta-like protein 4; rHuman DLL4
The assay is described as above.
Regarding B27, the ECL signal worked out at 78400.

In another assay the target is T9, rHuman P-Cadherin/Fc Chimera, CF (R&D Systems Cat#861-PC) (human, UniProt P22223 108-654).
T9 construct: Bought recombinant Fc chimera; Fc part of the bought chimera not given
The description is as above.
B27 showed an ECL signal of 347.

For another assay, the target named is T1, Recombinant Human DLL4 (R&D Systems …). Nature of the assay: ECL 96-well plate assay; 0.004 uM Fab, plate coated with 15 ug/mL DLL4.
Turning to B1, the Signal/Noise was determined as 1.1.
Same read-out and setting: under B2 stands 69.8; under B3, 34.5; under B4, 27.4.
Still for that read-out and setting: under B5 stands 82.4; under B6, 31.7.
Still for that read-out and setting: for B7 the value was 31.9.
Take B8: the Signal/Noise was determined as 5.2.
On the same count and under the same terms, under B9 stands 36.5.
